± gives the uncertainty stated by the source.
B1: Zinc finger homeobox protein 4, residues 2086 to 2141; numbered along this chain, Q86UP3 (parent)
chain: RPRTRITDDQLKILRAYFDINNSPSEEQIQEMAEKSGLSQKVIKHWFRNTLFKERQ

Variants of: B1
Experiment: abundance fitness (aPCA) (normalised: wild type 0, dead -1); higher = more abundant; growth selection in yeast, the domain comes from the species named
Conditions: Homo sapiens

Abundance fitness of substitutions, site by site:
Q28: D -0.12 ± 0.11, A -0.092 ± 0.076, G -0.178 ± 0.072, E -0.155 ± 0.12, K 0.064 ± 0.12, C -0.244 ± 0.089, F -0.416 ± 0.18, H -0.046 ± 0.1, I 0.06 ± 0.17
L14: A -0.865 ± 0.12, W -0.777 ± 0.14, V -0.273 ± 0.083, Y -1.22 ± 0.33, I -0.439 ± 0.42, D -1.19 ± 0.46, H -1 ± 0.23, Q -0.866 ± 0.13, T -1.01 ± 0.12, K -1.16 ± 0.2, E -1 ± 0.14, F -0.304 ± 0.28, S -1.02 ± 0.14, N -1.18 ± 0.31, C -0.671 ± 0.17, R -0.949 ± 0.096
D8: Y -0.238 ± 0.14, C 0.046 ± 0.11, V -0.015 ± 0.069, T -0.172 ± 0.1, F -0.056 ± 0.14, H -0.019 ± 0.16, N -0.28 ± 0.11, L -0.127 ± 0.079, M 0.113 ± 0.088, W -0.092 ± 0.081, P 0.034 ± 0.11, S 0.023 ± 0.081, K 0.012 ± 0.098, R -0.183 ± 0.067, G -0.004 ± 0.067, Q 0.081 ± 0.097, I 0.036 ± 0.14, A -0.051 ± 0.066, E 0.145 ± 0.083
D9: G -0.14 ± 0.078, L -0.043 ± 0.064, A 0.059 ± 0.074, H 0.044 ± 0.074, P -0.002 ± 0.07, N 0.047 ± 0.069, F 0.071 ± 0.076, M -0.084 ± 0.091, R -0.134 ± 0.078, C -0.011 ± 0.094, V -0.162 ± 0.073, S 0.084 ± 0.065, K -0.087 ± 0.09, Y -0.041 ± 0.069, E -0.003 ± 0.11, I -0.026 ± 0.075, W -0.155 ± 0.11, Q -0.083 ± 0.12, T 0.165 ± 0.07
K12: W -0.379 ± 0.082, G -0.146 ± 0.068, N -0.007 ± 0.11, C -0.112 ± 0.099, Y -0.422 ± 0.13, P -0.16 ± 0.093, H -0.34 ± 0.13, Q -0.029 ± 0.11, A -0.137 ± 0.084, V -0.045 ± 0.075, D -0.212 ± 0.12, R -0.039 ± 0.065, M -0.071 ± 0.091, L 0.005 ± 0.073, E -0.076 ± 0.1, S -0.09 ± 0.081, I -0.094 ± 0.15
I20: E 0.015 ± 0.12, G -0.03 ± 0.066, C -0.095 ± 0.084, R -0.007 ± 0.067, N 0.03 ± 0.11, F -0.006 ± 0.09, A 0.105 ± 0.079, V 0.008 ± 0.069, D -0.276 ± 0.11, L -0.051 ± 0.081, M -0.007 ± 0.13, W -0.273 ± 0.09, Y -0.113 ± 0.12, T 0.077 ± 0.12, P 0.022 ± 0.11, K 0.153 ± 0.11, H -0.134 ± 0.12, Q 0.054 ± 0.1
E26: G -0.154 ± 0.074, W -0.322 ± 0.11, Q -0.003 ± 0.094, K 0.039 ± 0.14, V -0.056 ± 0.078, R 0.021 ± 0.071, D -0.069 ± 0.12, M -0.032 ± 0.09, Y 0.048 ± 0.12, P -0.032 ± 0.093, F 0.111 ± 0.14, C -0.211 ± 0.12, L -0.015 ± 0.079, A -0.027 ± 0.077, S -0.076 ± 0.078, T 0.133 ± 0.089
F18: Q 0.011 ± 0.11, M -0.043 ± 0.1, C -0.179 ± 0.091, N -0.268 ± 0.1, G -0.184 ± 0.065, T 0.014 ± 0.1, K -0.044 ± 0.15, A -0.026 ± 0.073, S -0.142 ± 0.078, P -0.224 ± 0.098, R -0.018 ± 0.067, Y 0.033 ± 0.11, E -0.305 ± 0.094, I -0.313 ± 0.1, D -0.227 ± 0.098, W -0.142 ± 0.086
A16: H 0.108 ± 0.083, T -0.124 ± 0.083, I -0.071 ± 0.11, P -0.028 ± 0.082, Q 0.03 ± 0.11, Y -0.013 ± 0.095, D -0.029 ± 0.11, S 0.129 ± 0.068, G 0.035 ± 0.13, L -0.051 ± 0.071, C -0.075 ± 0.077, V -0.211 ± 0.089, E 0.178 ± 0.14, K -0.129 ± 0.18, M 0.124 ± 0.12, R 0.096 ± 0.076, N 0.16 ± 0.093
P24: K -0.922 ± 0.15, H -0.427 ± 0.08, D -0.844 ± 0.14, F -0.538 ± 0.098, Y -0.51 ± 0.087, T -0.474 ± 0.084, E -0.326 ± 0.18, L -0.259 ± 0.067, N -0.691 ± 0.091, C -0.462 ± 0.12, R -0.642 ± 0.11, G -0.793 ± 0.14, I -0.337 ± 0.092, W -0.435 ± 0.18, S -0.553 ± 0.072, A -0.294 ± 0.08, M -0.676 ± 0.12, V -0.32 ± 0.081
L11: I -0.14 ± 0.13, R -0.026 ± 0.069, M -0.148 ± 0.11, T -0.115 ± 0.087, K 0.138 ± 0.11, F -0.134 ± 0.086, P -0.769 ± 0.11, S -0.043 ± 0.073, V -0.18 ± 0.074, Q -0.147 ± 0.1, D -0.069 ± 0.13, G -0.172 ± 0.065, N -0.024 ± 0.17, H -0.165 ± 0.11, Y 0.155 ± 0.13, A -0.193 ± 0.069, E 0.059 ± 0.097, W -0.205 ± 0.077, C -0.392 ± 0.096
E27: W 0.021 ± 0.21, N 0.129 ± 0.38, S -0.105 ± 0.17, R -0.02 ± 0.1, H -0.59 ± 0.49, V -0.071 ± 0.14, L -0.194 ± 0.12, Q 0.142 ± 0.18, G -0.033 ± 0.096, D -0.18 ± 0.29, I -0.261 ± 0.38, A 0.076 ± 0.15, Y -0.391 ± 0.29, P -0.24 ± 0.23, M 0.082 ± 0.21, T -0.185 ± 0.22, K -0.054 ± 0.25
S25: Y -0.471 ± 0.31, P -0.26 ± 0.38, F -0.468 ± 0.23
I13: V -0.027 ± 0.076, S -0.218 ± 0.088, H -0.333 ± 0.14, K -0.062 ± 0.12, W -0.136 ± 0.082, E -0.17 ± 0.12, T 0.043 ± 0.11, F -0.13 ± 0.19, P -0.612 ± 0.14, M -0.057 ± 0.084, Q 0.026 ± 0.11, L -0.08 ± 0.072, A -0.372 ± 0.084, G -0.347 ± 0.076, R -0.223 ± 0.074, Y -0.027 ± 0.21, D -0.289 ± 0.15
N22: H -0.359 ± 0.23, D -0.182 ± 0.25, V 0.05 ± 0.45, R 0.071 ± 0.2, G 0.014 ± 0.27, S 0.281 ± 0.23, P 0.201 ± 0.24, C -0.178 ± 0.29, I 0.204 ± 0.33
S23: V -0.052 ± 0.072, D -0.131 ± 0.12, N -0.004 ± 0.18, R -0.127 ± 0.08, C -0.004 ± 0.1, E 0.089 ± 0.11, W -0.176 ± 0.093, M -0.019 ± 0.14, K -0.009 ± 0.13, Q -0.011 ± 0.18, A 0.041 ± 0.08, H 0.187 ± 0.15, T -0.071 ± 0.13, P -0.003 ± 0.11, L -0.07 ± 0.09, G -0.211 ± 0.067, I -0.522 ± 0.16
Q10: A -0.461 ± 0.076, S -0.172 ± 0.076, F -0.616 ± 0.19, I -0.462 ± 0.12, P -0.819 ± 0.13, Y -0.498 ± 0.13, D -0.125 ± 0.12, N -0.099 ± 0.19, G -0.514 ± 0.068, R -0.526 ± 0.078, T -0.245 ± 0.092, E -0.383 ± 0.092, C -0.277 ± 0.11, M -0.323 ± 0.11, W -0.817 ± 0.1
D19: P -0.149 ± 0.11, A 0.011 ± 0.082, S 0.142 ± 0.085, G -0.089 ± 0.067, L 0.086 ± 0.079, N 0.07 ± 0.15, E 0.054 ± 0.092, K 0.082 ± 0.13, H -0.333 ± 0.12, R -0.009 ± 0.068, Y -0.001 ± 0.15, Q 0.029 ± 0.11, V -0.071 ± 0.077, C -0.072 ± 0.11, M -0.033 ± 0.095, T -0.104 ± 0.11, I -0.061 ± 0.16, F -0.196 ± 0.14
Y17: T -0.058 ± 0.088, S -0.227 ± 0.072, I -0.155 ± 0.085, M 0.076 ± 0.1, Q -0.089 ± 0.1, D -0.16 ± 0.11, F 0.025 ± 0.088, C -0.192 ± 0.08, G -0.075 ± 0.088, N 0.041 ± 0.088, V -0.204 ± 0.079, P -0.963 ± 0.12, A -0.16 ± 0.091, W -0.299 ± 0.097, H -0.045 ± 0.08, R -0.114 ± 0.078, L -0.159 ± 0.065
N21: P -0.494 ± 0.097, C -0.09 ± 0.18, F -0.191 ± 0.12, I -0.114 ± 0.12, K -0.187 ± 0.17, T 0.009 ± 0.089, E 0.122 ± 0.26, Y -0.156 ± 0.11, D -0.028 ± 0.13, A -0.031 ± 0.12, G -0.261 ± 0.11, S -0.048 ± 0.083, M 0.203 ± 0.18, W -0.111 ± 0.18, Q -0.247 ± 0.17, H -0.117 ± 0.095, L -0.101 ± 0.091, V -0.189 ± 0.12
R15: Y -0.2 ± 0.11, L -0.081 ± 0.072, T -0.065 ± 0.088, N -0.07 ± 0.15, Q 0.022 ± 0.093, H -0.337 ± 0.15, P -0.939 ± 0.12, K 0.018 ± 0.093, I -0.296 ± 0.16, F -0.245 ± 0.16, E -0.098 ± 0.089, S -0.012 ± 0.082, V -0.151 ± 0.073, W -0.133 ± 0.081, G -0.093 ± 0.07, D -0.168 ± 0.11, A -0.215 ± 0.076, C -0.414 ± 0.13, M 0.138 ± 0.093
